B1: Beclin-2 (Homo sapiens), A8MW95 (parent)
chain: MSSIRFLCQRCHQALKLSGSSESRSLPAAPAPTSGQAEPGDTREPGVTTREVTDAEEQQDGASSRSPPGDGSVSKGHANIFTLLGELGAMHMLSSIQKAAGDIFDIVSGQAVVDHPLCEECTDSLLEQLDIQLALTEADSQNYQRCLETGELATSEDEAAALRAELRDLELEEARLVQELEDVDRNNARAAADLQAAQAEAAELDQQERQHYRDYSALKRQQLELLDQLGNVENQLQYARVQRDRLKEINCFTATFEIWVEGPLGVINNFRLGRLPTVRVGWNEINTAWGQAALLLLTLANTIGLQFQRYRLIPCGNHSYLKSLTDDRTELPLFCYGGQDVFLNNKYDRAMVAFLDCMQQFKEEAEKGELGLSLPYGIQVETGLMEDVGGRGECYSIRTHLNTQELWTKALKFMLINFKWSLIWVASRYQK
partner: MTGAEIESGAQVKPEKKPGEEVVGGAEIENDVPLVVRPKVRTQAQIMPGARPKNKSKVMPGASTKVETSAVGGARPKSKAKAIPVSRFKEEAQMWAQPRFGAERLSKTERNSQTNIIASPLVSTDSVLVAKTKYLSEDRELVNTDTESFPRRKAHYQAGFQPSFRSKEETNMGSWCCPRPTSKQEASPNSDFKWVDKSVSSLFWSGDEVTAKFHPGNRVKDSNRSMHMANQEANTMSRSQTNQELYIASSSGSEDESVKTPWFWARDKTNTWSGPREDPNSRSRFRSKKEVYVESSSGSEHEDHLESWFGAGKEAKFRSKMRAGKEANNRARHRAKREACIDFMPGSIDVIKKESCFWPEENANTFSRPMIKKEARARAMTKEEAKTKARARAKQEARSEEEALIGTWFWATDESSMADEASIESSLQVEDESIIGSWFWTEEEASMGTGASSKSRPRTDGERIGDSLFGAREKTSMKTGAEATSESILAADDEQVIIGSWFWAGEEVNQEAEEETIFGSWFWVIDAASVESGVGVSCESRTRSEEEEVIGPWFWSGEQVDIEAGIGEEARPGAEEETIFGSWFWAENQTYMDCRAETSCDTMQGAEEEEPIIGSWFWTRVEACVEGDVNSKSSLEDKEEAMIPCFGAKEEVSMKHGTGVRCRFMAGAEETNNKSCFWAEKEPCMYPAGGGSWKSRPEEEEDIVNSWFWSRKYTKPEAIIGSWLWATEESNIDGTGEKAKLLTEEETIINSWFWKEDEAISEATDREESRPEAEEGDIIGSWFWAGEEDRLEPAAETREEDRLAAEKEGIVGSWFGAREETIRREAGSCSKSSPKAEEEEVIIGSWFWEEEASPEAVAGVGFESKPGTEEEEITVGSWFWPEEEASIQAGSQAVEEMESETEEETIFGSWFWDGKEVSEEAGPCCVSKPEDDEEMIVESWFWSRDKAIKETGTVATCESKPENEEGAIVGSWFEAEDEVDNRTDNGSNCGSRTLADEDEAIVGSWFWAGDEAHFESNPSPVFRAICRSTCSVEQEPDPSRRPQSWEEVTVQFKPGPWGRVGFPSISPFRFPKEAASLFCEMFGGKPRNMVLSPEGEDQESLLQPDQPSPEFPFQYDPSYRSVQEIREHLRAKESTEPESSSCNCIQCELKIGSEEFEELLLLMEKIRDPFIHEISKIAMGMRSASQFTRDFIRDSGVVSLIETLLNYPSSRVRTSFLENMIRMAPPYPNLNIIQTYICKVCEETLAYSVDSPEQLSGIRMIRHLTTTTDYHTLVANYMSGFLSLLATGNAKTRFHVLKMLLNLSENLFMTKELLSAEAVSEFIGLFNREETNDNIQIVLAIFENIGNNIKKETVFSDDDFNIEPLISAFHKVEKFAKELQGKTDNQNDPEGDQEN

Variants of: B1
Conditions: with gasp1_human GPRASP1, Q5JY77

| Variant | effect of a mutation on the interaction |
| --- | --- |
| I80S | disrupting interaction strength |
